± gives the uncertainty stated by the source.
Assay: amyloid nucleation score (Sup35N fusion, yeast selection) (log enrichment); library NNK1; higher = more nucleation; inactive = no reads after selection
Summary of the method: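 Yeast lacking psi expressed peptides of 20 random codons fused to Sup35N, received 100 μM copper sulfate for 24 hours, and were then grown for 7 days at 30°C on medium lacking adenine and uracil. Illumina sequencing of input and output plasmid inserts provided the reads. Nucleation scores are DiMSum log enrichments of output over input, centred on the mode of non-aggregating sequences. Any sequence with under 100 input reads was excluded.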

| Substance | amyloid nucleation score |
| --- | --- |
| SGNKGRLSLLYYILFMPWLA | -0.412 ± 1 |
| SGRPGTAQLRVVLGHNQKCA | 1.12 ± 0.97 |
| SGRYMWQEISLMFCLSDVSP | 0.836 ± 0.58 |
| SGSGRCTNLSCVGGFGKWLM | 0.714 ± 0.6 |
| SGTESEFKVKMNKLQSSYMG | -0.022 ± 0.45 |
| SGVLLINGVA | 0.699 ± 0.42 |
| SHGVVYGFIMLVMEEYLRQQ | -0.376 ± 0.27 |
| SHLLLHSLWSDPGIIVDLYT | inactive |
| SHNGCKIWGMDNLIVH | -0.616 ± 0.46 |
| SHPMDKRLWEKSYKAVGVCV | 0.174 ± 0.58 |
| SHRRGVKSTFLMRRLHYMWY | 0.168 ± 0.62 |
| SHRSRGLANRSCDGVPTVRR | 1.84 ± 0.46 |
| SHVLCSDTNTI | inactive |
| SIDFV | 0.989 ± 0.88 |
| SIDGWNSKVKGFEFRMGGT | -0.045 ± 0.32 |
| SIDVSDSSRDGYSDMWSKCK | -0.164 ± 0.24 |
| SIFLKIPNREVLSSFRWTCF | -0.372 ± 0.22 |
| SIFSSNCNL | -0.36 ± 0.24 |
| SIIYQVRRLCGSYVSILGSQ | 0.251 ± 0.69 |
| SIKCGVVHLNRMVRAQSKLC | 0.136 ± 1.5 |
| SIKFIRTYWWITNSVDKFV | inactive |
| SILCESFVGCLDAMRDRVYY | -0.036 ± 0.61 |
| SIQPIW | 0.952 ± 0.5 |
| SIVNVDVALSHLCSYQRSRM | 4.11 ± 0.1 |
| SIYALVSCSVFVTAMDAVQA | 4.17 ± 0.061 |

| Substance | amyloid nucleation score |
| --- | --- |
| SIYKSSEREVVY | inactive |
| SKCAVQCLVG | 0.986 ± 0.2 |
| SKCDQSIRYSRGNETPLDSL | 0.274 ± 0.83 |
| SKFTYRV | -0.302 ± 0.38 |
| SKFVT | 1.2 ± 0.9 |
| SKHRSIYFIPLSHVESVVVW | -0.192 ± 1.1 |
| SKIHYMF | -0.942 ± 0.57 |
| SKSFDRKMVC | -0.092 ± 0.33 |
| SKSGLDDGHDA | -0.335 ± 0.23 |
| SKTSEGLLLYVISYRNYYGP | 0.671 ± 0.4 |
| SKTVVTKVKLSIWAGRVLRF | -1.14 ± 1.9 |
| SKWLIRGCL | 1.6 ± 0.21 |
| SLAGFCMQPRTLLV | 0.86 ± 0.83 |
| SLAQFRWVV | 1.52 ± 0.13 |
| SLCVWDSFNPERTGLFMRWI | 0.99 ± 0.93 |
| SLDYKFSFLSQ | 6.963 ± 0.045 |
| SLEDEEQLYLANSIREGLAV | 0.76 ± 0.51 |
| SLEVRNRCNVYVAAANLLVM | 2.76 ± 0.095 |
| SLEWFSRWSN | 1.15 ± 0.37 |
| SLFEFWSDNFNQEQ | 1.49 ± 0.76 |
| SLGFIFTEILYIFIVAWFII | 0.198 ± 0.47 |
| SLILFV | 0.856 ± 0.45 |
| SLINTRVPPLENNAC | -0.443 ± 0.51 |
| SLITVSHMPWGCT | 0.342 ± 0.36 |
| SLIYGILCKINQ | -0.064 ± 0.44 |

| Substance | amyloid nucleation score |
| --- | --- |
| SLLLLMGALSHGMRLFKGSS | 0.268 ± 0.82 |
| SLLPDPHYMTQVW | -0.559 ± 0.55 |
| SLLTYQ | 0.757 ± 0.27 |
| SLMTQDCNFRYYLKRCI | 0.894 ± 0.63 |
| SLNFTDHIYYMDGLLIAVVE | 0.358 ± 0.32 |
| SLNVNLMSRVYSSAREGGVS | 1.73 ± 0.2 |
| SLPFVTLLNAMCVCSGANCL | 8.449 ± 0.045 |
| SLQISCQWYAVWGHMLLSDF | inactive |
| SLQPVYAATCSSFHYSFFAG | 4.89 ± 0.074 |
| SLRCVPVVSMRVRSDSSLYK | 0.529 ± 0.9 |
| SLRKKVSSVCSC | 0.838 ± 0.54 |
| SLRWSQSPFYFVTSIGRQGG | 0.585 ± 0.55 |
| SLSFSCSVKV | -0.149 ± 0.54 |
| SLSMDIAVRSTTNRHANNIL | -0.494 ± 1.1 |
| SLSMLTARGLILNMCNGMRF | 1.52 ± 0.84 |
| SLSRD | -0.393 ± 0.41 |
| SLTYCHSIIKDLETLIFRSK | 0.283 ± 0.61 |
| SLVSPRCSKMMFWGLPGVMM | 0.088 ± 0.29 |
| SLVVVGCWLAANQESK | 1.28 ± 0.33 |
| SLYCNGVRMPLAETSGNEHL | -0.091 ± 0.43 |
| SLYNTLEVNDNKHRVNFLVA | 0.652 ± 0.58 |
| SLYTKWKSILPNWVFVCIAL | -1.35 ± 0.38 |
| SMDNYIVNSSTVWPSSFSLK | 4.73 ± 0.075 |
| SMEGLMSLMHSRISRFVFRV | 0.168 ± 1.2 |
| SMHHGFYCDVWLGGVILRCK | 0.047 ± 0.56 |

| Substance | amyloid nucleation score |
| --- | --- |
| SMHSLGSHEGSRRIPGLSFD | -0.007 ± 1.2 |
| SMIPSNGTRLMLDSLTKYID | inactive |
| SMNHVFYYFIRMWTSM | 0.156 ± 0.63 |
| SMRCKSYGCC | 0.3 ± 0.59 |
| SMTSWWVRGLLPVNGD | 2.53 ± 0.13 |
| SMVPQTMGVSQESRCYAGSC | -0.215 ± 0.65 |
| SMYSNRHHDWFR | -0.412 ± 1.4 |
| SNAIVTFIVGVAAPGTYYS | 6.47 ± 0.062 |
| SNCERAIAKSHLVARPFSVS | 0.16 ± 0.73 |
| SNDVIVWYPIDEGHAGCAYL | 1.75 ± 0.66 |
| SNECLRNGAFYDCPVREAWM | -0.346 ± 0.27 |
| SNEYLCYYMSTNA | -0.345 ± 0.39 |
| SNFFVRFNTVTNFSMWDEYY | inactive |
| SNFINLGRWFRIDL | 0.377 ± 0.53 |
| SNHDNFYPVVLCMESKYNIE | 0.302 ± 0.34 |
| SNKSSSDIDCVYLENCSTSG | 1.43 ± 0.36 |
| SNLLGSMFLLCHQIKHRPEI | -0.764 ± 0.34 |
| SNMRRASFNHGGRWNSGRGN | -1.1 ± 2.4 |
| SNNELSTMTRL | -1.01 ± 1.2 |
| SNSFYREVNWGNRT | 0.216 ± 0.57 |
| SNSSLECYCMNVVRFHLGLS | 0.735 ± 0.18 |
| SNSVRNRRIFKKSTVRH | -0.055 ± 0.36 |
| SNVHCPWKL | -1.74 ± 2.7 |
| SNWFCGFYDWISVLFNSLKL | 1.42 ± 0.65 |
| SPKPYFSRKYVIKIHKRS | -1.54 ± 1.4 |

| Substance | amyloid nucleation score |
| --- | --- |
| SPKSPPL | -0.053 ± 0.62 |
| SPPFQSELMLPLRLSGLVSS | 1.28 ± 0.93 |
| SPPMSKLVMATRVLKCMDPS | 0.086 ± 0.79 |
| SPRAWRMGHGLVGWVMEKKG | 0.476 ± 1.1 |
| SPRLAGMVSMVDKCRRASGR | 0.097 ± 0.33 |
| SPTTKCLPSERSSINCNLMT | 0.311 ± 0.68 |
| SQDGISMMLGMSGWRGHASV | 0.659 ± 1 |
| SQFISK | 1.14 ± 0.52 |
| SQLARLLFIAGIVPTRARVI | 0.144 ± 0.64 |
| SQVLGSLLFRSPRVWICVAG | -0.969 ± 2.1 |
| SRAAFVSSKPYMSWGVTYVH | -0.792 ± 1.3 |
| SRDASLDRPSRRV | -0.465 ± 0.49 |
| SRFKTDYTG | -0.492 ± 0.68 |
| SRGLFCWWRSTWRGVL | -1.28 ± 2.4 |
| SRKKKIVITEPNHSSRHQSV | 0.003 ± 0.86 |
| SRKVKVWPVGLRRLVMFFVN | 1.43 ± 0.53 |
| SRLVCLVNYVGGGYIETITL | 4.02 ± 0.1 |
| SRNLGMYHMYFKFPWCMNPM | -0.15 ± 0.46 |
| SRNVVLPL | 0.195 ± 0.43 |
| SRPDTQPEEAQ | -0.02 ± 0.21 |
| SRPQLDKTLFGLVA | 0.771 ± 0.62 |
| SRRYLRVGCKVNVHTFGLYL | -0.502 ± 1 |
| SRVISLPVLKI | -0.302 ± 0.9 |
| SRVLRPS | -0.174 ± 0.4 |
| SRVSLRRQCYVRVNGLCLYI | 1.84 ± 0.3 |

| Substance | amyloid nucleation score |
| --- | --- |
| SRVSYPGFYYGCPVFQYYSA | 7.589 ± 0.053 |
| SSFSLGSTLF | 0.597 ± 0.52 |
| SSFSVVFDSHVSS | 0.382 ± 1.4 |
| SSGHSVRVDNKTGVWVWPVG | -0.329 ± 1.6 |
| SSGSMCTLFSSE | 1.75 ± 0.57 |
| SSIESSYGKFLRGIVSESIK | 0.485 ± 0.55 |
| SSIMHSG | 0.925 ± 1.1 |
| SSISV | 2.35 ± 0.53 |
| SSLSSMLRGSWAGYVLNCL | inactive |
| SSLVVWNTQSSTLMTLLSYS | -0.915 ± 0.49 |
| SSNFSPLTIVVYNFCI | 7.744 ± 0.051 |
| SSRFVWIASKINILYNFQTY | -0.403 ± 0.7 |
| SSSKGSMENYISYRSL | -0.703 ± 0.32 |
| SSSRNLVSSRCLQVYLPMHA | 0.986 ± 0.71 |
| SSSSML | -0.202 ± 0.47 |
| SSSWTTCY | 2.15 ± 0.1 |
| SSTAEDTMWARGSNKTLYQS | 0.148 ± 0.44 |
| SSTFCVAQYQSYWLCEVKWV | 0.086 ± 1.4 |
| SSTILQLCSPNRRLRSTKLG | 1.97 ± 0.7 |
| SSVFCFIGKASEAVILAIYC | -0.052 ± 0.79 |
| SSYFTKM | 0.548 ± 0.34 |
| SSYRNWYRRSGDQLYYLEP | 0.876 ± 0.42 |
| SSYVPSCCYWAVWFCVRGKY | 1.58 ± 0.46 |
| STFFSY | inactive |
| STFIDGSGIVALHCNSGCLA | 0.86 ± 0.73 |

| Substance | amyloid nucleation score |
| --- | --- |
| STHNTRFGVY | 0.167 ± 0.24 |
| STIMMF | 0.289 ± 0.52 |
| STLDLLCYFRREADQTINKR | 0.336 ± 0.36 |
| STNLMKMWLFHLRDTAR | 0.583 ± 0.37 |
| STRICWGTCFDKLDMGGSR | 1.95 ± 0.34 |
| STWLLGQRRYPRHKERGRAR | 0.101 ± 0.35 |
| SVASRACW | 0.139 ± 0.8 |
| SVGGVAGEF | -0.087 ± 0.96 |
| SVGMVLFLGCGLLLFRFLCG | -0.359 ± 1.2 |
| SVKSIRCLCSVVEYKETGHR | 0.438 ± 0.34 |
| SVLVWADLCHDTEA | 0.42 ± 0.84 |
| SVNRCGVYFTEGFFSLRWS | 1.13 ± 0.25 |
| SVPITLIGALGVKM | 0.177 ± 0.57 |
| SVPVSTTDWNSGFLWAGGCS | 0.513 ± 0.52 |
| SVQDFPDTSNNLASYVPSSW | -0.292 ± 0.74 |
| SVSVNHSLPTLESDL | -0.682 ± 0.62 |
| SVTVM | 1.74 ± 0.49 |
| SVVLQTHFAFSSFELKSKVA | -0.54 ± 0.39 |
| SVVTFT | 0.575 ± 0.49 |
| SVWDERIPGGYSPIRVCPSW | -0.337 ± 0.74 |
| SVWMCM | 2.64 ± 0.1 |
| SVWVVCFVSRNVLVMFNSNF | inactive |
| SWAWIACIGAMNPEN | -0.478 ± 1.4 |
| SWDEAVSWHSRSVVSAGGVA | -0.813 ± 1.3 |
